Experimental data as given in patent publication US6548066B1, “Immunogenic compositions to the CCK-B/gastrin receptor and methods for the treatment of tumors” (Aphton Corporation, priority 1997, dated 2003).

Assays:
MC26 mouse colon tumor = details: treated animals; 25 days in the control animals; cited from earlier work
[1] = target: T1, gastrin-receptor expressed by AR42J cells (Rattus norvegicus, UniProt P30553); experiment: Immunofluorescence binding of antibodies to AR42J cells; details: peptide inhibitor 1.0 mg/ml; antibody 100 μg/ml
T1 construct: host or cells: AR42J rat pancreatic adenocarcinoma cells
T1 sequence (P30553 1-452): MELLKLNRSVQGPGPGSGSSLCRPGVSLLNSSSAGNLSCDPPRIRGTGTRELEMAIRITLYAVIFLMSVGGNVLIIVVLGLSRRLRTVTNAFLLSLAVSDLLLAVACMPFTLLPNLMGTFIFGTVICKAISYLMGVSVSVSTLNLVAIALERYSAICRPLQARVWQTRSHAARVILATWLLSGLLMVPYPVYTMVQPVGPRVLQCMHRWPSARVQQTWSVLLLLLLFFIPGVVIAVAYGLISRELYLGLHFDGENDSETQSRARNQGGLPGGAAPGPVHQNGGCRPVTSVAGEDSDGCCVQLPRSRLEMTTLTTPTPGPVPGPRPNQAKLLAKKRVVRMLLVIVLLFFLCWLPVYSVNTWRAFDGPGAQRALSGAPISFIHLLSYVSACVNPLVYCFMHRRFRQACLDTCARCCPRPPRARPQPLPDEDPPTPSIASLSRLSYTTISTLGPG
Description: Binding of the GRP1-Ser specific antibodies to AR42J cells was assessed by immunofluorescence. AR42J cells were grown as in the previous Examples and harvested with cell scrapers from 175 cm^2 T-flasks and washed twice with buffer (PBS with 0.02% NaN3) by centrinugation (400×g for 7 min). The cells were kept at 0-4° C. for all manipulations. A single cell suspension was prepared in buffer, and the cell concentration was adjusted to 10^6 cells/ml. The cell suspension was added to 1.5 ml microfuge tubes (1 ml/tube). The cells were pelleted by centrifugation and supernatants were aspirated. The cells were resuspended in buffer (0.1 ml/tube) containing peptide inhibitors (1.0 mg/ml). The inhibitors included GRP1-Ser, GnRH, hG17(9)-Ser and buffer (no inhibitor). Antibodies, including the rabbit anti-GRP1-Ser (100 μg/ml), affinity purified rabbit anti-DT (negative control, 100 μg/ml), mouse anti-AR42J antiserum (positive control, 1:100 dilution, heat inactivated) or normal mouse serum were added to the appropriate tubes and the contents were mixed. The cells were incubated for 1 hour, with occasional mixing. […] Fluorescence was scored on a scale of 0 to 4, with 0 representing background fluorescence (obtained with the normal mouse serum) and 4 representing maximal fluorescence (obtained with the mouse anti-AR42J positive control antiserum).

[2] = target: T2, CCK-B/gastrin-receptor on AR42J cells (Rattus norvegicus, UniProt P30553); experiment: Radioligand (125I-hG17) binding inhibition on AR42J cells
T2 construct: host or cells: AR42J rat pancreatic adenocarcinoma cells
T2 sequence (P30553 1-452): T1 sequence (P30553 1-452)
Description: AR42J tumor cells (European Collection of Animal Cell cultures, Porton Down, UK) are derived from a rat pancreatic adenocarcinoma and are known to have well characterized CCK-B/gastrin-receptors. Thus AR42J were tested to confirm the expression of CCK-B/gastrin-receptor and specificity of the receptor for hH17 by radioligand inhibition. AR42J cells were cultured at 37° C. with 7% CO2 in complete RPMI 1640 (Sigma) supplemented with 10% FCS (Gemini Bioproducts), 2 mM glutamine (JRH Biosciences), 1 mM sodium pyruvate (JRH B.) and 50 μg/ml gentamicin (Gemini Bioproducts). The cells were harvested from 175 cm^2 T-flasks (Falcon Plastics) with PBS containing 0.25% EDTA, then washed twice with PBS (no EDTA) by centrifugation (400×g for 10 min). The cells were kept at 0-4° C. for all manipulations. A single cell suspension was prepared in buffer, and the cell concentration was adjusted to 10^6 cells/ml. Aliquots of 1 ml of cell suspension were added to 12×75 mm culture tubes, then the cells were centrifuged and the supernatants discarded. The cells were resuspended in PBS (0.1 ml/tube) containing human G17 (hG17), gonadotropin releasing hormone (GnRH), or no peptide. The peptide concentrations were 1.0 ng/ml, 100 ng/ml and 10 μg/ml. An aliquot of 0.1 ml of ^125I-hG17 (NEN), containing approximately 26,300 CPM (specific activity, 2200 Ci/mmol), was added to each tube. The tubes were vortexed, then incubated for 15 minutes. The cells were washed twice with PBS, then counted in a γ counter (Wallac). Samples were run in duplicate. Background counts were subtracted, then the % inhibition of ^125I-hG17 binding by each inhibitor was calculated using the equation: % Inhibition=(100)(1−((CPMuninhibited−CPMinhibited)/CPMuninhibited).

[3] = system: affinity purified anti-GRP1 Ab binding to GRP1-Ser-BSA; experiment: Inhibition ELISA, specificity of affinity purified anti-GRP1 antibodies; design: species or system rabbit; details: anti-GRP1 Ab 10 ng/ml; inhibitor 1:10 dilution series
Description: The following experiments were performed to establish the specificity of antibodies raised in rabbits against the GRP1-DT peptide containing Ser spacer described Example 1 using Method B. A series of tests were conducted to assess the specificity of rabbit antibodies induced by immunization with the GRP1-DT and affinity purified by immunoadsorption over a GRP1-Ser Sepharose column.
An inhibition ELISA was used to assess the specificity of the affinity purified antibodies for GRP1-Ser peptide. The assays were run as follows: GRP1-Ser-BSA conjugate was coated onto 96 well plates (Immulon U bottom) by overnight incubation of 50 μl of a 2 μg/ml solution of conjugate in glycine buffer (0.1M, pH=9.5) at 4° C. Affinity purified anti-GRP1 Ab (at a final concentration of 10 ng/ml) was combined with various inhibitors (in 1:10 dilution series) and incubated for 1 hour at room temperature. The inhibitors included GRP1-Ser, GRP1 EPT, Ser, human gastrin 17(1-9)-Ser spacer (hG17(9)-Ser), GRP1 EPT+Ser, and buffer (no inhibitor). Incubation buffer consisted of PBS+0.5% BSA+0.05% Tween 20+0.02% NaN3. Subsequent steps used the same buffer without BSA. The 96 well plates were washed free of nonbound GRP1-Ser-BSA, and the Ab+inhibitor mixtures were added (50 μl/well). After 1 hour, the plates were washed and a goat anti-rabbit Ig (H+L) alkaline phosphatase conjugate (Zymed) was added (1:2000 dilution). […] Following a 60 minute incubation, absorbance was measured on a MRX reader (Dynatech Laboratories). Samples were run in duplicate, and means were calculated for each concentration. Background binding (established with affinity purified rabbit anti-GnRH antibodies) was subtracted from all values, and the % Inhibition relative to no inhibitor added (anti-GRP1 Ab+buffer) was calculated for each inhibitor tested: % Inhibition=(100)(1−((Auninhibited−Ainhibited)/Auninhibited), where A=Absorbance. The results are shown in FIG. 4.

Row | Compound | inhibition of anti-GRP1-Ser antibody binding to AR42J cells [1] | inhibition of antibody binding to GRP1-Ser-BSA [3] | also measured
1 | CCCN(CCC)C(=O)C(CCC(=O)O)NC(=O)c1ccccc1 (stereo not drawn) [proglumide] | – | – | survival of xenograft mice bearing MC26 (MC26 mouse colon tumor): 39 days
2 | GnRH: gonadotropin releasing hormone | failed to inhibit | – | inhibition of 125I-hG17 binding to AR42J cells ([2]; 100 pg, considered to be nonspecific): 6%; inhibition of 125I-hG17 binding to AR42J cells ([2]; two highest concentrations tested): no inhibition
3 | KLNRSVQGTGPGPGASL [GRP1 EPT] | – | Approximately 60% | –
4 | SSPPPPC [Ser spacer] | – | No inhibition | –
5 | hG17(9)-Ser: amino-terminal nine residues of hG17 followed by the Ser spacer (QGPWLEEEESSPPPPPC) | failed to inhibit | No inhibition | –
6 | hG17: human G17, heptadecagastrin | – | – | inhibition of 125I-hG17 binding to AR42J cells ([2]; 1 μg per tube, highest concentration tested): 32%
